Entries after “also recorded” stand apart in the source; their conditions may differ. One block for each molecule: values may come before it.
Columns and labels:
[1] = system: mouse fibroblast (NIH3T3); assay: βig-h3-mediated cell adhesion test, NIH3T3; type: cell-based; settings: for adhesion inhibiting effect: NIH3T3, concentration of 0.5uM, FIG. 15C; for βig-h3-mediated cell adhesion: NIH3T3, βig-h3 5 ug/ml coat
Description: (§1) Human βig-h3 was introduced into a 96-well plate at a concentration of 5 ug/ml, and coated for 14 hours at 4° C. In DMEM+0.5% BSA (Bovine Serum Albumin) culture medium, human fibroblast (NIH3T3) was introduced, and hsdhFas-1 peptide at concentrations was injected thereto, followed by mixing. The resultant mixture was cultured at 37° C. for 30 minutes, and plated on a coated well. It was cultured for 2 hours, and washed with PBS (phosphate buffered saline) so as to remove unattached cells, and then added with a substrate (4-Nitrophenyl N-acetyl-β-D-glucosaminide, Sigma, U.S.) to be activated by β-N-acetylglucosaminidase within the cell, followed by culturing at 37° C. for 1 hour. Then, a glycine EDTA solution (0.5M EDTA, 50 mM glycine, pH 10.4) was added thereto, and the coloring extent according to the number of attached cells was measured by absorbance.
Also, a structurally modified peptide of a fas-1 domain of mouse βig-h3 was synthesized as a recombinant peptide (hereinafter, referred to as ‘mdhFas-1peptide’, see FIG. 2), and a mouse cell line, that is, NIH3T3 cell line, was used to test the inhibiting effect by mdhFas-1 peptide on adhesion and migration of a Synovial membrane cell in the same manner as that in the test using human βig-h3.
as §1, with “βig-h3” for “Human βig-h3”, “mouse” for “human”, “MFK23, MFK24, MFK25 or MFK27” for “hsdhFas-1 peptide”

NIH3T3 = assay: βig-h3-mediated cell migration test (transwell), NIH3T3; type: cell-based, mouse; settings: 7 hours
Description: In the lower compartment of a transwell filter having an 8 um hole size allowing cells to be migrated, βig-h3 was cultured at 4° C. for 12 to 14 hours and coated. In DMEM+0.5% BSA culture medium, NIH3T3 was introduced, and administered with MFK23, MFK24 or MFK25 at concentrations, followed by mixing. The resultant mixture was cultured at 37° C. for 30 minutes, inoculated into the upper chamber of the coated well, and cultured for 7 hours at 37° C. Then, the cells migrated to the lower compartment of the filter were fixed by paraformaldehyde, and strained by a crystal violet. The cells […] remaining in the upper chamber were wiped out and the number of cells migrated to the lower compartment was microscopically counted.

cathepsin D = cathepsin D (Homo sapiens, UniProt P07339); assay: Enzymatic digestion test, cathepsin D; type: biochemical; settings: 3 ug peptide, cathepsin D 5, 10, 50 ng, 37° C. 4 hours
Description: (§2) 3 ug of synthesized mdhFas-1-MMPsubstrate structure modified protein, together with MMP1 (5 ng, 10 ng and 50 ng), MMP2 (100 ng, 200 ng and 800 ng), MMP3 (10 ng, 50 ng and 100 ng), cathepsin D (5 ng, 10 ng and 50 ng), cathepsin L (100 ng, 200 ng and 800 ng), and cathepsin K (10 ng, 50 ng and 100 ng), was mixed with enzyme buffer (150 mM NaCl, 5 mM. CaCl2, 20 mM Tris-HCl pH7.5), and reacted at 37° C. for 4 hours. The resultant product was subjected to electrophoresis through 15% polyacrylamide gel, transferred to a Nitrocellulose Membrane (Schleicher & Schuell), blocked at room temperature for 1 hour with TBST solution containing 3% BSA (20 mmole/L Tris-HCl, 137 mmole//l NaCl, 0.1% Tween-20), washed TBST solution three times (each for 10 minutes), and reacted with primary antibody (anti-Histidine or anti-Bigh3) for 1 hour. The resultant product was washed with TBST solution three times (each for 10 minutes), reacted with a secondary antibody conjugated to horseradish peroxidase (HRP) for 1 hour, washed TBST solution three times (each for 10 minutes), and visualized by ECL (Amersham Biosciences, UK) so as to detect the change in the amount of mdhFas-1-MMPsubstrate-RGD structural peptide.

MMP3 = MMP3 (Homo sapiens, UniProt P08254); assay: Enzymatic digestion test, MMP3; type: biochemical; settings: 3 ug peptide, MMP3 10, 50, 100 ng, 37° C. 4 hours
Description: as §2

cathepsin K = biological target: T1, cathepsin K (Homo sapiens, UniProt P43235); assay: Enzymatic digestion test, cathepsin K; type: biochemical; settings: 3 ug peptide, cathepsin K 10, 50, 100 ng, 37° C. 4 hours
T1 sequence (P43235 115-329): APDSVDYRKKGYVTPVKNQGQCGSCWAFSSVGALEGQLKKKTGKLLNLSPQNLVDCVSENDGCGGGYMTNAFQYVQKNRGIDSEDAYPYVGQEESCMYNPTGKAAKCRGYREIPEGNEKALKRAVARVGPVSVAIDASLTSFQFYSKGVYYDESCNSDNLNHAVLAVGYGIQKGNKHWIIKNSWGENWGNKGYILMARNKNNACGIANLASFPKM
Description: as §2

MMP2 = biological target: T2, MMP2 (Homo sapiens, UniProt P08253); assay: Enzymatic digestion test, MMP2; type: biochemical; settings: 3 ug peptide, MMP2 100, 200, 800 ng, 37° C. 4 hours
T2 sequence (P08253 110-660): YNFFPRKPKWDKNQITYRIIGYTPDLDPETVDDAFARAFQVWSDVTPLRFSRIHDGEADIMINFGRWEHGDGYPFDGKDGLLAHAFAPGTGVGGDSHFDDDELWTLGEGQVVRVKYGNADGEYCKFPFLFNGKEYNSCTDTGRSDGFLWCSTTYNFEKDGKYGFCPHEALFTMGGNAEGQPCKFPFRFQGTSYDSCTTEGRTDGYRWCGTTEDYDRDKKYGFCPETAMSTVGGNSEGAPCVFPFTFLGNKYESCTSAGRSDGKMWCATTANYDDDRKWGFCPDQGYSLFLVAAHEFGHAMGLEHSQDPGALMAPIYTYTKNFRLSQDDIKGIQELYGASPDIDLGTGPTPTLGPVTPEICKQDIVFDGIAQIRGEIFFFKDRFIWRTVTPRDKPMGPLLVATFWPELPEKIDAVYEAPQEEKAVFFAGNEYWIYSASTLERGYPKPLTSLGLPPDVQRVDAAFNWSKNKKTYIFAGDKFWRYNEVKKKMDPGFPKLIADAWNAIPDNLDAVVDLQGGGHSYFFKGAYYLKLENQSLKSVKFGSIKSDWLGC
Description: as §2

MMP1 = biological target: T3, MMP1 (Homo sapiens, UniProt P03956); assay: Enzymatic digestion test, MMP1; type: biochemical; settings: 3 ug peptide, MMP1 5, 10, 50 ng, 37° C. 4 hours
T3 sequence (P03956 100-469): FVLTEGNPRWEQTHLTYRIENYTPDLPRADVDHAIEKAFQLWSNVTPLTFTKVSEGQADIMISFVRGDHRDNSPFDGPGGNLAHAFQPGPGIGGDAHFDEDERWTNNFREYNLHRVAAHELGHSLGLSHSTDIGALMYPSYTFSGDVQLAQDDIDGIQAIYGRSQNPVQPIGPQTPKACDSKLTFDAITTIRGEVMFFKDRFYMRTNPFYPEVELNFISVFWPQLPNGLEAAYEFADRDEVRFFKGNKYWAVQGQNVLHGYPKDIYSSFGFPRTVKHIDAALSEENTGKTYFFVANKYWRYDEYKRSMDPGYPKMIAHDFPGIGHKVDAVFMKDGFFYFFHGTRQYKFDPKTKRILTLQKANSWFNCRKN
Description: as §2

cathepsin L = cathepsin L (Homo sapiens, UniProt P07711); assay: Enzymatic digestion test, cathepsin L; type: biochemical; settings: 3 ug peptide, cathepsin L 100, 200, 800 ng, 37° C. 4 hours
Description: as §2

[2] = system: collagen-induced arthritis (CIA) mouse model; assay: Arthritis therapeutic effect in CIA mouse (clinical arthritis index); type: in vivo
Description: A CIA mouse model having the similar characteristic to that of human rheumatoid arthritis was prepared according to the description in a known literature (Protocol for the successful induction of collagen-induced arthritis (CIA) and collagen antibody-induced arthritis (CAIA) in mice. Chondrex, Redmond, Wash.): Bovine type 2 collagen 100 ug was mixed with Freund's complete adjuvant, and hypodermically inoculated into the tail of the mouse. After 3 weeks, bovine type 2 collagen 100 ug was mixed with Freund's incomplete adjuvant, and inoculated again into the tail of the mouse. Then, the mouse was used in the experiment.
In order to find out the therapeutic effect of arthritis in a CIA model, for four weeks from the onset (the 23rd day) of arthritis following the second injection of the bovine type 2 collagen, MFK23 or MFK24 was daily injected into the abdominal cavity in doses of 0.1 mg/kg, 1 mg/kg, 10 mg/kg and 30 mg/kg. As a control group, the same amount of PBS was injected into the abdominal cavity. From the 23rd day to the 50th day, by using a Clinical arthritis index, the severity of arthritis was daily determined. The determination was based on the following data.
0; no symptom, 1; edema in one articulation or light edema, 2; severe edema in 2 or more articulations, 3; severe edema in most articulations, 4; severe edema in the whole of legs.

[3] = Toxicity test in CIA mouse (weight, serologic test, blood test); settings: CIA mouse, 22nd day vs 48th day
Description: On the 48th day, a serologic test and a blood test were carried out.

MMP3, sequence (P08254 100-477, species assumed): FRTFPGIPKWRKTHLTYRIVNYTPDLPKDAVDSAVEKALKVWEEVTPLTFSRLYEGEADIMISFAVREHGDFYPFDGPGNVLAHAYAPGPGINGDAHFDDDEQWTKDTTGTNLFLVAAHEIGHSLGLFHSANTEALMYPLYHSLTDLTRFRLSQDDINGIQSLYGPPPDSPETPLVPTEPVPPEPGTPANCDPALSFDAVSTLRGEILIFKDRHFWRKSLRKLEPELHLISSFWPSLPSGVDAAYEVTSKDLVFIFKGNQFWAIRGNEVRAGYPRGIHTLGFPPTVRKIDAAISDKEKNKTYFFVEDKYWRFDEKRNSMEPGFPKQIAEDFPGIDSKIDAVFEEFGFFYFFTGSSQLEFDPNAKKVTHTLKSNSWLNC
cathepsin D, sequence (P07339 65-412, species assumed): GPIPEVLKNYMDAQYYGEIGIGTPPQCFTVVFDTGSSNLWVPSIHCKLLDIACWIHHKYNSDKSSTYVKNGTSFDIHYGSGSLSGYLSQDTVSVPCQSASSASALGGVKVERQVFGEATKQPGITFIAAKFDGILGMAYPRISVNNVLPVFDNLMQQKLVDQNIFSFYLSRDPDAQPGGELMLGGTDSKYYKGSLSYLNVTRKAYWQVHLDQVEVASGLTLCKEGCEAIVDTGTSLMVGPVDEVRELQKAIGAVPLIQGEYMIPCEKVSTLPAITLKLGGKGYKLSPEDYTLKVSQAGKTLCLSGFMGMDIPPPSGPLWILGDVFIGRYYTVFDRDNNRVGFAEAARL
cathepsin L, sequence (P07711 114-333, species assumed): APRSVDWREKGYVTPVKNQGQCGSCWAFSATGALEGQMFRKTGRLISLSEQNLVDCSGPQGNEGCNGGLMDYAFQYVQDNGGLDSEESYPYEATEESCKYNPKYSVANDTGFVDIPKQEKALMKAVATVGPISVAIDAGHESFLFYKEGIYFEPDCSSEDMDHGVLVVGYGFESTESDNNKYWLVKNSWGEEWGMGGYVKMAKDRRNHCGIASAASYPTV

Molecule: RGDSP (amino acid chain comprising ′RGD′) [reference compound]
- adhesion inhibiting effect [1]: 0%

- cleavage through treatment with cathepsin D (cathepsin D): not cleaved
- cleavage through treatment with cathepsin K (cathepsin K): not cleaved
- cleavage through treatment with MMP-2 (MMP2): concentration-dependently cleaved
- cleavage through treatment with cathepsin L (cathepsin L): not cleaved
B1: MFK25: fusion peptide having sequential links of mdhFas-1, MMP consensus substrate GPLGIAG (SEQ ID NO: 7), and QERGDSLA (SEQ ID NO: 10) (protein)
chain: QAMPPEELNKLLANAKELTNILKYHIGDEILVSGGIGALVRLKSLQGDKLEVSSKNNVVSVNKEPVAETDIMEFGPLGIAGVDGQERGDSLAGLE
modifications: MFK25
- βig-h3-mediated cell migration (NIH3T3): inhibited the cell migration; also recorded: concentration-dependently inhibited
- cleavage through treatment with MMP-3 (MMP3): concentration-dependently cleaved; also recorded: well cleaved
- cleavage through treatment with MMP-1 (MMP1): concentration-dependently cleaved; also recorded: well cleaved
- βig-h3-mediated cell adhesion [1]: even at a very low concentration can inhibit the cell adhesion; also recorded: concentration-dependently inhibited

B2: MFK27: fusion peptide having sequential links of mdhFas-1, MMP3 substrate GPLGLWARG (SEQ ID NO: 8), and QERGDSLA (SEQ ID NO: 10) (protein)
chain: MALLMRLLTLALALSVGPAGTLARSQAMPPEELNKLLANAKELTNILKYHIGDEILVSGGIGALVRLKSLQGDKLEVSSKNNVVSVNKEPVAETDIMEFGPLGLWARGVDQERGDSLAGLE
modifications: MFK27
- βig-h3-mediated cell adhesion [1]: even at a very low concentration can inhibit the cell adhesion; also recorded: concentration-dependently inhibited

B3: mdhFas-1: peptide prepared by removing H1 and H2 regions from the fourth fas-1 domain of mouse βig-h3 (protein)
chain: QAMPPEELNKLLANAKELTNILKYHIGDEILVSGGIGALVRLKSLQGDKLEVSSKNNVVSVNKEPVAETDIM
modifications: mdhFas-1
notes: peptide prepared by removing H1 and H2 regions from the fourth fas-1 domain of mouse βig-h3
- βig-h3-mediated cell migration (NIH3T3): concentration-dependently inhibited
- arthritis inhibition (clinical arthritis index) ([2]; 10 mg/kg daily): about 32%
- arthritis inhibition (clinical arthritis index) ([2]; 30 mg/kg daily): about 69%
- arthritis inhibiting effect (clinical arthritis index), in words ([2]; daily into the abdominal cavity): concentration-dependently inhibited
- body weight change compared to control group [3]: abnormal findings in the weight change were not observed
- adhesion inhibiting effect [1]: 50%
- βig-h3-mediated cell adhesion [1]: concentration-dependently inhibited

— patent US9605038B2, “Fusion peptide comprising dhFas-1 domain and MMP substrate and use thereof for preventing and treating rheumatoid arthritis” (Kyungpook National University Industry-Academic Cooperation …, priority 2010, dated 2017)
